Test results: the Immune Epitope Database (IEDB)

Biological target: HLA-A*02:01
Experiment: IEDB peptide-MHC binding, cellular MHC/competitive/fluorescence; ≥ and ≤ were set here for values at or beyond the usual limits of such assays
Settings: source organism: Vaccinia virus WR

Sequence	IC50 [µM]
FIKPPLITLT	≥ 70
MIVLPNKVRI	≥ 70
DLEKYFYGEI	≥ 70
RLSLNRTIVT	8.65
VMETDRENA	8.08
STLPNKSDVL	46.5
EILTVKRPLL	≥ 70
LTSGEYKQCL	20.2
GILSNYVKT	≥ 70
VVKYLSGGGI	≥ 70
CIKSHSVSLV	≥ 70
QQPIKKDCMV	18.5
TTTSEVVDM	10
SQLSVLSSIT	11.5
MIVLITMLSI	6.16
LVKLSSYHVV	14.4
LTDSLSSQMT	11.9
IQGKNKRKRV	≥ 70
KQDIVGLDL	14.2
VARRKDQTA	37.7
SLKRNAEGI	≥ 70
YTVMVKINPT	9.38
KIKHKGMSFV	15.8
HASPTLFNA	8.95
AVNEEWLTA	17.3
LIRPKILSM	≥ 70

Sequence	IC50 [µM]
NAKCIEYVT	≥ 70
PVDDGPDDET	15.2
DMLVNRMQRI	11.7
GIVLSNTST	20.2
QMNARGVKV	5.14
DALAKNASEL	61.8
IAFSSGTVI	43.9
SADDIQAIM	12.1
STPMTEYII	≥ 70
PTASSDSLQT	16.7
VVRRTMLSDI	8.52
RQSSCKMAL	42.7
DVELFIKAL	≥ 70
KQRTPGIITI	53.2
DTFVSSVREV	5.08
HLATPINSRI	7.9
AIDFGNGADL	46.8
QQKCDMPSL	25
YVSTGESSI	11.4
KITFALKKL	17.8
LTTLSRHIFM	5.83
AAITDAAVA	18.6
LTFLSGGDL	18.8
EVASTHDWST	≥ 70
ATLGPANRI	17
MQRISGSNI	9.8

Sequence	IC50 [µM]
QIHLYYNSNI	48.7
PIYYVQKQLV	18.7
NMNYSDDYM	11.2
GATLYRFKHI	≥ 70
VTKTDGIPIT	27.5
PVHDILSGL	≥ 70
TAVNEEWLTA	25
ALSDACKKIL	17.9
IVWEKKSLVT	20.7
WTVYLIKLI	7.52
DISMSLYKDL	9.88
SIRIKIDKL	16.5
EQEIESLEA	26.3
SATVYGDKI	12.9
STHRKVASST	51.5
DLVVLGKVT	53.3
DIRTLLPILL	50.6
ELKTQSPDVL	61
SIPKETNELT	≥ 70
ETSFNDKQKV	≥ 70
ITVTVTFNPV	6.42
TMKIFYKHI	≥ 70
FLDDSNKRKV	8.41
GTVINEDIV	35.7

Biological target: HLA-A*02:01
Experiment: IEDB peptide-MHC binding, purified MHC/competitive/radioactivity; ≥ and ≤ were set here for values at or beyond the usual limits of such assays
Settings: source organism: Hepatitis B virus

Sequence	IC50 [µM]
GLSPTVWLSV	0.029

Same assay, conditions: source organism: Influenza A virus

Sequence	IC50 [µM]
QIAILVTTV	1.09

Same assay, conditions: source organism: Mammarenavirus brazilense

Sequence	IC50 [µM]
EAINIALIAV	1.48
NLSNCVHPAV	0.153

Same assay, conditions: source organism: Mammarenavirus whitewaterense

Sequence	IC50 [µM]
GLTDLGLLYT	0.102
ALNIALIAV	0.019
GLVDVCFWST	0.071

Same assay, conditions: source organism: Vaccinia virus WR

Sequence	IC50 [µM]
ATYHIIIVAL	1.15
HLNPSRIRI	0.956
AAMYQYIFL	0.686
NLNIVRDML	2.76
FIDTVSVYT	0.231
FLHESDPMVI	0.0011
IIDFLEGAL	0.919
YLNTNKLFFA	0.0099
TVTNKEGVKI	2.88
ILMDSIFVST	0.045
TIGNQLYLTV	0.018
FLSLMSLSI	0.0035
FMYIESIKV	0.0013
RVYEALYYV	0.0015
YAVTKTDGI	3.06
NLFDIPLLTV	0.00033
LLYLILFLL	2.2
NVDNLIMIV	0.17
RVQSFKINI	0.769
EAAITDAAV	2.32

Sequence	IC50 [µM]
KLSCAVHLI	0.0032
TMFKIVYSL	0.0093
SITKEKIKI	4.81
FLCLLMKLSI	0.0021
DASLMDMITL	0.206
FTGITLFLL	0.13
KLFLIKKMA	1.07
DLYDYITRI	1.03
IVISPMGKL	0.896
LVLGIALLYI	0.0067
ILYMVVDGSV	0.107
LLSYYVVYV	0.00046
YLIHDNIMYT	0.0013
TAKSSFVCGI	1.13
KLLLWFNYL	0.002
TLYDFDYYI	0.00018
FIFTGITLFL	0.00092
ELVRYIELV	0.291
NIVIFVKRL	1.28
ALLSRFFNM	0.00061

Biological target: HLA-A*02:02
Experiment: as above
Settings: source organism: Hepatitis B virus

Sequence	IC50 [µM]
GLSPTVWLSV	0.023

Biological target: HLA-A*02:03
Experiment: as above
Settings: source organism: Hepatitis B virus

Sequence	IC50 [µM]
SILSPFLPLL	0.016
SLNFLGGTTV	0.00067
